From patent US11459389 (dated 2022)

T1: human Clec7A (human, UniProt Q9BXN2)
T1 chain: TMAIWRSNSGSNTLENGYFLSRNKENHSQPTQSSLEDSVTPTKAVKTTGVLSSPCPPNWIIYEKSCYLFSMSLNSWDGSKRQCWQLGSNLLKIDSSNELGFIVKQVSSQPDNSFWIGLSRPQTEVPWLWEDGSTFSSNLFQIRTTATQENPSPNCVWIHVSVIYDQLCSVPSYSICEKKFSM

T2: human CD94 (human, UniProt Q13241)
T2 chain: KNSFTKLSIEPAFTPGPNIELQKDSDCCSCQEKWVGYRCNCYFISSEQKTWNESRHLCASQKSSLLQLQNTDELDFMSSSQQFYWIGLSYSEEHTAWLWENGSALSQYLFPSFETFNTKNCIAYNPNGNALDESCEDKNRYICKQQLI

T3: human KLRF1 (human, UniProt Q9NZS2)
T3 chain: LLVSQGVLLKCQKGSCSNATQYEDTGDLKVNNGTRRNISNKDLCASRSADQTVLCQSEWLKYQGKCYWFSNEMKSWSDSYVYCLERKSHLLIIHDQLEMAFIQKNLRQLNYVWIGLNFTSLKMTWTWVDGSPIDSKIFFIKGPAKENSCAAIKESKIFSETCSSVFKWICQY

T4: human KLRG1 (human, UniProt Q96E93)
T4 chain: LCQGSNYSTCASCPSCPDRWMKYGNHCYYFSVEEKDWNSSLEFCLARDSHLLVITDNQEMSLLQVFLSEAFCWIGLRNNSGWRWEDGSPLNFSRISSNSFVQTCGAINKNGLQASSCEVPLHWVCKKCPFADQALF

T5: human Clec10A (human, UniProt Q8IUN9)
T5 chain: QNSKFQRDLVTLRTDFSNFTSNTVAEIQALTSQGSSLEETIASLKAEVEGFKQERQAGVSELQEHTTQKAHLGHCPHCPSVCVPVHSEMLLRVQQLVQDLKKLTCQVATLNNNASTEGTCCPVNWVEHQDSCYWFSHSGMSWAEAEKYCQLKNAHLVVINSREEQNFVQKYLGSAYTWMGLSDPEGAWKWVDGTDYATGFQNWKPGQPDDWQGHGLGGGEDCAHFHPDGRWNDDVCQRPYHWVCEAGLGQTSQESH

T6: human Clec5A (human, UniProt Q9NY25)
T6 chain: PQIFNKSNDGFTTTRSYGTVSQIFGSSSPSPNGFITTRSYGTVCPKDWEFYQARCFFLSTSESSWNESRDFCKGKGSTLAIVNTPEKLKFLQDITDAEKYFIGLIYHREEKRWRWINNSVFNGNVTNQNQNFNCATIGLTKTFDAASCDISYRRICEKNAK

T7: human Clec4E (human, UniProt Q9ULY5)
T7 chain: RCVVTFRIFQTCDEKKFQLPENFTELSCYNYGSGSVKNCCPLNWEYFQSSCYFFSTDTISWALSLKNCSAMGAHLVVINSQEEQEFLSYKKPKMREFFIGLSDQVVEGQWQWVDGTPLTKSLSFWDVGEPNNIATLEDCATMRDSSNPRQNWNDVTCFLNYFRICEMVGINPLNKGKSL

T8: human Clec12B (human, UniProt Q2HXU8)
T8 chain: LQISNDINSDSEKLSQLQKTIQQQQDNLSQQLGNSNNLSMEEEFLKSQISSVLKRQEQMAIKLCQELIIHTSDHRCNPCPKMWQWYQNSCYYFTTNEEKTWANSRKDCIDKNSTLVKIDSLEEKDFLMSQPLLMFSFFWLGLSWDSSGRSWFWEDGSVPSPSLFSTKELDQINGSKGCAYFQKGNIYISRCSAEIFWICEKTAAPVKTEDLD

T9: human CD209 (human, UniProt Q9NNX6)
T9 chain: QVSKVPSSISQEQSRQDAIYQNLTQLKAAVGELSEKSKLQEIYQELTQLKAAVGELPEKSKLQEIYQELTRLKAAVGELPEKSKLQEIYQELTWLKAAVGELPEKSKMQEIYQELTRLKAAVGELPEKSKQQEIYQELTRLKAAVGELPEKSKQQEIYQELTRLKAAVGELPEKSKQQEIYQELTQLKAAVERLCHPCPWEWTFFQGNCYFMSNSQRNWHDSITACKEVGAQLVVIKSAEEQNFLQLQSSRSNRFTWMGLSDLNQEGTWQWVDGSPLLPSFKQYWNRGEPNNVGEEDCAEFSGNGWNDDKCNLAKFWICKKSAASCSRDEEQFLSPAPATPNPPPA

T10: human KLRF2 (human, UniProt D3W0D1)
T10 chain: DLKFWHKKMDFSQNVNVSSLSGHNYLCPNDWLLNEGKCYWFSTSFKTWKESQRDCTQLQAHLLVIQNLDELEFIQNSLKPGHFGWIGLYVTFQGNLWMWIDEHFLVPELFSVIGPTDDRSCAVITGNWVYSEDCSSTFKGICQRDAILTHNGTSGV

B1: KW1.3.12 (antibody)
chain 1: EVQLVESGGGLVQPGGSLRLSCAASGFTFSSYAMSWVRQAPGKGLEWVSTISGSGGSTYYADSVKGRFTISRDNSRNTLYLQMNSLRAEDTAVYYCARGGLIPSGFDYWGQGTLVTVSS
chain 2: DIQMTQSPSSLSASVGDRVTITCRASQSISSYLNWYQQKPGKAPKLLIYAASSLLSGVPSRFSGSGSGTDFTLTISSLQPEDFATYYCQQTYSAPLTFGQGTKVEIK
B2: KW1.2.1 (antibody)
chain 1: EVQLVESGGGLVQPGGSLRLSCAASGSTFSSYAMSWVRQAPGKGLEWVSTISGSGGSTYYADSVKGRFTISRDNSRNTLYLQMNSLRAEDTAVYYCARGGLIPSGFDYWGQGTLVTVSS
chain 2: DIQMTQSPSSLSASVGDRVTITCRASQSISSYLNWYQQKPGKAPKLLIYAASSLLSGVPSRFSGGGSGTDFTLTISSLQPEDFATYYCQQTYSTPLTFGQGTKVEIK
B3: KW7.3.7 (antibody)
chain 1: EVQLVESGGGLVQPGGSLRLSCAASGFTFSSYAMSWVRQAPGKGLEWVSATSGSGGSTYYADSAKGRFTISRDNSKNTLYLQMNSLRAEDTAVYYCARGGYLPDAFDYWGRGTLVTVSS
chain 2: DIQMTQSPSSLSASVGDRVTITCWASQSISSYLNWYQQEPGKAPKLLIYAASSLQSGVPSRFSGSGSGTDFTLTISSLQPEDFATYYCQQTYSTPLTFGQGTKVEIK
B4: KM12.4.7 (antibody)
chain 1: EVQLVESGGGLVQPGGSLRLPCAASGFTFSSYAMSWIRQAPGKGLEWVSAISGSGGSIYYADSVKGRFTISRDNSKNTLYLQMDSLRAEDTAVYYCARGYSDSYFYGPYYTFDYWGQGTLVTVSS
chain 2: not shown

How the values were obtained:
Experiment in all cases: FACS
[1] = target: T1, human Clec7A
[2] = target: T2, human CD94
[3] = target: T3, human KLRF1
[4] = target: T4, human KLRG1
[5] = target: human Clec9A (human, UniProt Q6UXN8)
human Clec9A, sequence (Q6UXN8 57-241): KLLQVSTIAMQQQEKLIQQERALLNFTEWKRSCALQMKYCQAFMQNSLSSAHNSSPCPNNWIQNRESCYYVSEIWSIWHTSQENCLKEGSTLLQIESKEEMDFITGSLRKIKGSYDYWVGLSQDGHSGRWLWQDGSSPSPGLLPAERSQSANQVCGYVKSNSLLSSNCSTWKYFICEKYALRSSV

[6] = target: T5, human Clec10A
[7] = target: T6, human Clec5A
[8] = target: T7, human Clec4E
[9] = target: T8, human Clec12B
[10] = target: T9, human CD209
[11] = target: T10, human KLRF2
[12] = target: human CD161 (human, UniProt Q12918)

| Binder | binding result [1] | binding result [2] | binding result [3] | binding result [4] | binding result [5] | binding result [6] | binding result [7] | binding result [8] | binding result [9] | binding result [10] | binding result [11] | Kd [12] [nM] |
| --- | --- | --- | --- | --- | --- | --- | --- | --- | --- | --- | --- | --- |
| B1 | no binding | no binding | no binding | no binding | no binding | no binding | no binding | no binding | no binding | no binding | no binding | – |
| B2 | – | – | – | – | – | – | – | – | – | – | – | 0.233 |
| B3 | no binding | no binding | no binding | no binding | no binding | no binding | no binding | no binding | no binding | no binding | no binding | – |
| B4 | no binding | no binding | no binding | no binding | no binding | no binding | no binding | no binding | no binding | no binding | no binding | – |
